# Test results from patent US20220034883A1 (SYSMEX, published 2022).
# Molecular target: T1, His-tagged recombinant N protein of SARS-CoV (SARS-CoV, UniProt P59595 1-422)
# T1 construct: mature
# Assay: ELISA screening of hybridomas
# T1 sequence (P59595 1-422, tags left off): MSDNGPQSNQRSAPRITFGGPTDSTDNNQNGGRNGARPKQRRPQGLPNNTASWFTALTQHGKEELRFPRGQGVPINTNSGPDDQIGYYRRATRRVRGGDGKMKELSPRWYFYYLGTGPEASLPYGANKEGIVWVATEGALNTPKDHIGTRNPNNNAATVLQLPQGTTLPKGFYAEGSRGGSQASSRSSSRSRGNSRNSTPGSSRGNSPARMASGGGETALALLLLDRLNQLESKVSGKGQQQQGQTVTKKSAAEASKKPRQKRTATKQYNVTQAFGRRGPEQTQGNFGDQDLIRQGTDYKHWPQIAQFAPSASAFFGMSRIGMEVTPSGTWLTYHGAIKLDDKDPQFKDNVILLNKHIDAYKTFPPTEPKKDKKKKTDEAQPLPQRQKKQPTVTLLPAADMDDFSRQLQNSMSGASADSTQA
binder,measurement,value
"first antibody (monoclonal antibody purified from the culture supernatant of the hybridoma of Clone 1) (antibody, V domains shown, also called capture antibody) VH: QVTLKESGPGILQPSQTLSLTCSFSGFSLSTSGTGVSWIRQPSGKGLEWLAHIYWDDDKRYNPSLKSRLTVSKDTSGNQVFLKITSVDTADTATYYCARSNYGYDLDYWGQGTTLTVSS VL: DIVMTQSQKFMSTSVGDRVSVTCKASQNVGTNVVWYQQKPGQSPKALIYSASYRYSGVPDRFTGSGSGTDFTLTISNVQSEDLAEYFCQQYNNYPLTFGSGTKLEIKR",binding result,binds
